Measured values published in paper PMC6660750, “Catalytic deficiency of O-GlcNAc transferase leads to X-linked intellectual disability” (Proceedings of the National Academy of Sciences of the …, 2019).

T1: truncated OGT N567K (O-GlcNAc transferase, residues 323-1044, N567K variant) (human, UniProt O15294 323-1044, N567K)
T1 construct: O-GlcNAc transferase (OGT), human, residues 323-1044, with the patient missense mutation N567K in the catalytic domain; In the crystal it also holds the donor analog UDP-5S-GlcNAc; N567K is a de novo mutation found in patients; also called N567K OGT; O-linked β-N-acetyl-D-glucosamine (O-GlcNAc) transferase N567K; source: recombinant, from Escherichia coli (expression and purification in SI …)
T1 sequence (looked up): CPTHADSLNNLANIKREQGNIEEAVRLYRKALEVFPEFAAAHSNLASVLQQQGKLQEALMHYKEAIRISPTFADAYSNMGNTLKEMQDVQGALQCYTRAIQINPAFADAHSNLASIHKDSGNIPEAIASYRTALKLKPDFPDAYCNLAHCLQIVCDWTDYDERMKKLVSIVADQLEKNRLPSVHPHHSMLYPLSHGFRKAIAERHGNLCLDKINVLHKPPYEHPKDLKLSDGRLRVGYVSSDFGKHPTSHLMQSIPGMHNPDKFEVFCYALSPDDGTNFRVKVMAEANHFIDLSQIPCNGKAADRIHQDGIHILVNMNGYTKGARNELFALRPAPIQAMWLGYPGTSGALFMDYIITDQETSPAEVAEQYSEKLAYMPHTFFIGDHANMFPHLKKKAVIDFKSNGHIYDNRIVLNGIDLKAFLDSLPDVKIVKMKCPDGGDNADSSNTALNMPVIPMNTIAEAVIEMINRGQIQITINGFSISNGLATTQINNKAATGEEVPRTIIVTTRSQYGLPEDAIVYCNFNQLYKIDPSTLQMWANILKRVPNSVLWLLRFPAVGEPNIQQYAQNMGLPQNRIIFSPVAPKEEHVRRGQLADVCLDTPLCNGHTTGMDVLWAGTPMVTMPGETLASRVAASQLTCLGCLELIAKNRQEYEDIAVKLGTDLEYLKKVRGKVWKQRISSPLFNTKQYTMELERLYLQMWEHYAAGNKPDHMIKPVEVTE

T2: truncated OGT N567K (O-GlcNAc transferase, residues 323-1044, N567K variant) (human) (UniProt O15294)
T2 sequence: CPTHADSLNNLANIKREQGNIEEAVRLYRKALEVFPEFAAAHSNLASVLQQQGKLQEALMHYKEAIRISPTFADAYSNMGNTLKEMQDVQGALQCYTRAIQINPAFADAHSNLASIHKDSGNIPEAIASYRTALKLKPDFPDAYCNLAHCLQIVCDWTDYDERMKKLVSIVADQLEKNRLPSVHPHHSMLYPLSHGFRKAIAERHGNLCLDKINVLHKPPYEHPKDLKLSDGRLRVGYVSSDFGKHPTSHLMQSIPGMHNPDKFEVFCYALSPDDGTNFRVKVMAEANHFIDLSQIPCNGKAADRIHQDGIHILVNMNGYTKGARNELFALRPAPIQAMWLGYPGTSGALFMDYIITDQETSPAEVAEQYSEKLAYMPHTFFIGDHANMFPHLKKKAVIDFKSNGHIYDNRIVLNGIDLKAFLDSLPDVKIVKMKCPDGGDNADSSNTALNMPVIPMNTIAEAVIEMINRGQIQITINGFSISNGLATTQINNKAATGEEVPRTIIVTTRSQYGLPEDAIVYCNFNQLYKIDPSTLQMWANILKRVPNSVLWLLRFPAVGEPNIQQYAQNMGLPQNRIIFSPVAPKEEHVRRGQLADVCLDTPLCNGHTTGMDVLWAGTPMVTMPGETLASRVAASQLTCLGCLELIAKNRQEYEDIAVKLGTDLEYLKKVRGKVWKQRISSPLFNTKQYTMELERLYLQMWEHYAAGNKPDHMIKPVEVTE


Experiments:
[1] = target: T1, truncated OGT N567K (O-GlcNAc …); experiment: crystal structure; OGT N567K (323-1044) cocrystallized with the donor analog UDP-5S-GlcNAc and acceptor peptide P2; ternary complex; molecular replacement with PDB 5C1D; conditions: both partners purified
[2] = target: T2, truncated OGT N567K (O-GlcNAc transferase, residues 323-1044, N567K variant) (human)

Row | binding result [1] | OGT glycosyltransferase activity, steady-state (Michaelis-Menten) kinetics, fluorometric assay, OGT N567K against acceptor peptide P1, compared with OGT WT [2] | Binder
1 | binds |  | KKVAVSRA (OGT acceptor peptide substrate with alanine at the -2 subsite) [P2 acceptor peptide (KKVAVSRA)]
2 |  | 12 fold | KKVPVSRA [P1 acceptor peptide (KKVPVSRA)]
